Molecular target: Escherichia coli RecA (Escherichia coli) (UniProt P0A7G6)
Sequence (P0A7G6 whole entry): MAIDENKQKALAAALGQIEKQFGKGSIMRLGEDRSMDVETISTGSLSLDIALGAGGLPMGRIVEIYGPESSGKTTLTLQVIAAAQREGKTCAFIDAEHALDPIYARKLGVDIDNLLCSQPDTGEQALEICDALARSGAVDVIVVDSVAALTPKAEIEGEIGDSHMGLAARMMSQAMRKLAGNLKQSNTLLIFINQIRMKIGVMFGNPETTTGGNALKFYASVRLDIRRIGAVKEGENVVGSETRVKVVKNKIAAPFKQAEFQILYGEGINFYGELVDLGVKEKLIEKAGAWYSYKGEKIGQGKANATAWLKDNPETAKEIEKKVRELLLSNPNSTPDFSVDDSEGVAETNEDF

B1: Bacillus subtilis DprA (natural protein)
chain: MDQAAVCLTICRINQLLSPSLLLKWWKADPSMSLTSPVLQTVTRDQIKAAALKNEIEQFYPKLPRVLAAYREQGINTIPISSKQYPFWLKSIYDPPAVLFAKGDMTLLSKGRKIGIVGTRNPTAYGKQVVNHLTKEICRKGWVIVSGLASGIDGMSHAASIKAKGRTIGVIAGGFQHIYPRENLQLADHMAKHHILLSEHPPETKPQKWHFPMRNRIISGLSEGVIVVQGKEKSGSLITAYQALEQGREVFAVPGSLFDPYAGGPIKLIQQGAKAIWSAEDIFEELPERNVQYTEPF
For B1, the activation of RecAEco (5 uM) dATP hydrolysis on (dT)21 by 0.3 uM DprABsu, against RecAEco alone was 7 to 8 fold.

— PMC12386762
